The values below come from publication PMC3534942 (Virology, 2012).

The target in data set [1] is HSV-1 gB730 (HSV-1 glycoprotein B ectodomain) (HSV-1) (UniProt P06437). In words: SEC-MALS. On the technique in general: In gel filtration, larger molecules generally elute earlier.
Data set [2] deals with the molecule itself. Description: mildly denaturing SDS-PAGE.
Data set [3] deals with the molecule itself. In words: SEC-MALS.

A word on the stoichiometry N: it is the number of molecules, sites or subunits per partner or assembly. As to “HSV-1 gB730 (HSV-1 glycoprotein B ectodomain) (from UniProt P06437 31-730) (domain or fragment)”, the stoichiometry N in data set [1] worked out at 3.

B1: HCMV gB706-CHis6 (HCMV strain AD169 glycoprotein B ectodomain, residues 25-706, C-terminal His6 tag) (domain or fragment)
chain: DPSSSTSHATSSTHNGSHTSRTTSAQTRSVYSQHVTSSEAVSHRANETIYNTTLKYGDVVGVNTTKYPYRVCSMAQGTDLIRFERNIICTSMKPINEDLDEGIMVVYKRNIVAHTFKVRVYQKVLTFRRSYAYIYTTYLLGSNTEYVAPPMWEIHHINKFAQCYSSYSRVIGGTVFVAYHRDSYENKTMQLIPDDYSNTHSTRYVTVKDQWHSRGSTWLYRETCNLNCMLTITTARSKYPYHFFATSTGDVVYISPFYNGTNRNASYFGENADKFFIFPNYTIVSDFGRPNAAPETHRLVAFLERADSVISWDIQDEKNVTCQLTFWEASERTIRSEAEDSYHFSSAKMTATFLSKKQEVNMSDSALDCVRDEAINKLQQIFNTSYNQTYEKYGNVSVFETSGGLVVFWQGIKQKSLVELERLANRSSLNITHRTRRSTSDNNTTHLSSMESVHNLVYAQLQFTYDTLRGYINRALAQIAEAWCVDQRRTLEVFKELSKINPSAILSAIYNKPIAARFMGDVLGLASCVTINQTSVKVLRDMNVKESPGRCYSRPVVIFNFANSSYVQYGQLGEDNEILLGNHRTEECQLPSLKIFIAGNSAYEYVDYLFKRMIDLSSISTVDSMIALDIDPLENTDFRVLELYSQKELRSSNVFDLEEIMREFNSYKQRVKYVEDKVVDPLPP
As to B1, in data set [2], the binding result is “binds”.

B2: HCMV gB706-4M (HCMV strain AD169 glycoprotein B ectodomain, residues 25-706, Y155G/I156H/Y157R/W240A) (domain or fragment)
chain: DPSSSTSHATSSTHNGSHTSRTTSAQTRSVYSQHVTSSEAVSHRANETIYNTTLKYGDVVGVNTTKYPYRVCSMAQGTDLIRFERNIICTSMKPINEDLDEGIMVVYKRNIVAHTFKVRVYQKVLTFRRSYAGHRTTYLLGSNTEYVAPPMWEIHHINKFAQCYSSYSRVIGGTVFVAYHRDSYENKTMQLIPDDYSNTHSTRYVTVKDQWHSRGSTALYRETCNLNCMLTITTARSKYPYHFFATSTGDVVYISPFYNGTNRNASYFGENADKFFIFPNYTIVSDFGRPNAAPETHRLVAFLERADSVISWDIQDEKNVTCQLTFWEASERTIRSEAEDSYHFSSAKMTATFLSKKQEVNMSDSALDCVRDEAINKLQQIFNTSYNQTYEKYGNVSVFETSGGLVVFWQGIKQKSLVELERLANRSSLNITHRTRRSTSDNNTTHLSSMESVHNLVYAQLQFTYDTLRGYINRALAQIAEAWCVDQRRTLEVFKELSKINPSAILSAIYNKPIAARFMGDVLGLASCVTINQTSVKVLRDMNVKESPGRCYSRPVVIFNFANSSYVQYGQLGEDNEILLGNHRTEECQLPSLKIFIAGNSAYEYVDYLFKRMIDLSSISTVDSMIALDIDPLENTDFRVLELYSQKELRSSNVFDLEEIMREFNSYKQRVKYVEDKVVDPLPP
modifications: N-linked glycosylation (mass difference of 22.9 kDa suggested that all 18 predicted N-linked glycosylation sites were glycosylated)
Consider B2, for which the “stoichiometry N” value in data set [3] was determined as 3.
